# According to US20210269480A1 (published 2021):
# *1 amine or outer side, *2 acyl side, *3 side chain or, on linkers, in order; H or OH if unused. Bridges are numbered along the chain shown (N, C = ends). Where no end group is shown, it is not given here. [ ]: non-standard residue; d: D form. TATA = O=C(CC[*:1])N1CN(C(=O)CC[*:2])CN(C(=O)CC[*:3])C1; 1Nal = N[C@@H](Cc1cccc2ccccc12)C(=O)O; NMehArg = CN[C@@H](CCCCNC(=N)N)C(=O)O; Hyp = O=C(O)[C@@H]1C[C@@H](O)CN1; NMeI = CC[C@H](C)[C@H](NC)C(=O)O; NMeT = CN[C@H](C(=O)O)[C@@H](C)O; dCya = N[C@H](CS(=O)(=O)O)C(=O)O; hArg = N=C(N)NCCCC[C@H](N)C(=O)O; NMeN = CN[C@@H](CC(N)=O)C(=O)O
# T1: human Nectin-4 (human, UniProt Q96NY8 32-349)
# T1 construct: a Gly32-Ser349 FLAG construct is described only under the SPR assay; also called PVRL4
# T1 sequence (looked up): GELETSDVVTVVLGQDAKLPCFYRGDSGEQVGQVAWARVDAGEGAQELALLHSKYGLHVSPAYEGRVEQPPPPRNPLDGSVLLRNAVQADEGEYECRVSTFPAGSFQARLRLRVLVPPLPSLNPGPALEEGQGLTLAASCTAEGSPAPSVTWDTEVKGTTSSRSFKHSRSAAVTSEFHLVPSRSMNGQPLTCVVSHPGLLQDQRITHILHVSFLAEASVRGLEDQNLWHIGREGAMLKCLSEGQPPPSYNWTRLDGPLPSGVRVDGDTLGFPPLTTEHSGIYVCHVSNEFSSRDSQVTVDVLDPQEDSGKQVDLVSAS
# B1: BCY3391 (peptide)
# peptide: MDTCPFGCMEDWSWPIWCA
# modifications: linker 4-8-18 via TATA
# B2: BCY8182 (peptide)
# peptide: Ac-CP[1Nal][dD]CMPDWSTP[Hyp]WC
# modifications: linker 1-5-15 via TATA
# B3: BCY8154 (peptide)
# peptide: Ac-CPF[dD]CM[hArg][NMeN]WSTPIWC
# modifications: linker 1-5-15 via TATA
# B4: BCY8163 (peptide)
# peptide: Ac-CP[1Nal][dCya]CM[hArg]DWSTP[Hyp]WC
# modifications: linker 1-5-15 via TATA
# B5: BCY8158 (peptide)
# peptide: Ac-CPF[dD]CM[hArg]NWSTP[NMeI]WC
# modifications: linker 1-5-15 via TATA
# B6: BCY8125 (peptide)
# peptide: Ac-CP[1Nal][dD]CM[hArg]HWSTP[Hyp]WC
# modifications: linker 1-5-15 via TATA
# B7: BCY8180 (peptide)
# peptide: Ac-CP[1Nal][dD]CM[hArg]DWSSP[Hyp]WC
# modifications: linker 1-5-15 via TATA
# B8: BCY8191 (peptide)
# peptide: Ac-CP[1Nal][dR]CM[hArg]DWSSP[Hyp]WC
# modifications: linker 1-5-15 via TATA
# B9: BCY8213 (peptide)
# peptide: Ac-CP[1Nal][dR]CL[hArg]DWSTP[Hyp]WC
# modifications: linker 1-5-15 via TATA
# B10: BCY8176 (peptide)
# peptide: Ac-CP[1Nal][dD]CM[hArg]DWTTP[Hyp]WC
# modifications: linker 1-5-15 via TATA
# B11: BCY8174 (peptide)
# peptide: Ac-CP[1Nal][dD]CM[hArg]DWDTP[Hyp]WC
# modifications: linker 1-5-15 via TATA
# B12: BCY8187 (peptide)
# peptide: Ac-CP[1Nal][dR]CM[hArg]DWTTP[Hyp]WC
# modifications: linker 1-5-15 via TATA
# B13: BCY8129 (peptide)
# peptide: Ac-CP[1Nal][dR]CM[hArg]HWSTP[Hyp]WC
# modifications: linker 1-5-15 via TATA
# B14: BCY8212 (peptide)
# peptide: Ac-CP[1Nal][dD]CL[hArg]DWSTP[Hyp]WC
# modifications: linker 1-5-15 via TATA
# B15: BCY8128 (peptide)
# peptide: Ac-CP[1Nal][dR]CM[hArg]NWSTP[Hyp]WC
# modifications: linker 1-5-15 via TATA
# B16: BCY8214 (peptide)
# peptide: Ac-CP[1Nal][dR]CL[hArg]HWSTP[Hyp]WC
# modifications: linker 1-5-15 via TATA
# B17: BCY8185 (peptide)
# peptide: Ac-CP[1Nal][dR]CM[hArg]DWDTP[Hyp]WC
# modifications: linker 1-5-15 via TATA
# B18: BCY8157 (peptide)
# peptide: Ac-CPF[dD]CM[hArg]NWS[NMeT]PIWC
# modifications: linker 1-5-15 via TATA
# B19: BCY3389 (peptide)
# peptide: DSECPFGCMSGWSWPIWCA
# modifications: linker 4-8-18 via TATA
# B20: BCY8153 (peptide)
# peptide: Ac-CPF[dD]CM[NMehArg]NWSTPIWC
# modifications: linker 1-5-15 via TATA
# B21: BCY3390 (peptide)
# peptide: HDACPFGCMEGWSWPIWCA
# modifications: linker 4-8-18 via TATA
# Biological target: T1, human Nectin-4
# Assay: FP competition, tracer SEQ ID NO 217
# Experimental: Peptides were diluted to an appropriate concentration in assay buffer as described in the direct binding assay with a maximum of 5% DMSO, then serially diluted 1 in 2. […] Measurements were conducted as for the direct binding assay, however the gain was determined prior to the first measurement. Data analysis was in Systat Sigmaplot version 12.0 where the mP values were fit to a user defined cubic equation to generate a Ki value: […]
row,Binder,Ki
1,B1,198 nM
2,B2,2 nM
3,B3,8 nM
4,B4,3 nM
5,B5,177 nM
6,B6,3.1 nM
7,B7,3 nM
8,B8,4.5 nM
9,B9,3.5 nM
10,B10,3.5 nM
11,B11,12.3 nM
12,B12,5 nM
13,B13,3.1 nM
14,B14,3 nM
15,B15,2.2 nM
16,B16,6.3 nM
17,B17,26.1 nM
18,B18,5 nM
19,B19,99.8 nM
20,B20,35 nM
21,B21,302 nM
